Assay [1] deals with Cac2 B domain (Saccharomyces cerevisiae) (UniProt Q04199). The following applies: cited from earlier work.
The target of assay [2] is Asf1 labeled with Alexa Fluor 532 (*Asf1), full-length (budding yeast) (UniProt P32447). Put plainly: native gel or EMSA; labelled protein (*Asf1, 0.5 µM in Figure 1b, or H3/H4*) with Cac2 or CAF-1 titrated or at 20 µM; 10 mM Tris, 1 mM DTT, pH 8.0, 30 min on ice; 0.2x TBE 59:1 native gel on ice; fraction bound from band densities.
For assay [3] the target is unchanged. The assay can be described thus: fluorescence polarisation; fluorescence anisotropy; 10 nM *Asf1 (alone or pre-bound to 20 nM H3/H4) or 100 nM *Asf1^1-169, Cac2 or CAF-1 titrated; 20 mM HEPES, 150 mM NaCl, pH 7.4, 20°C.

Chain of UniProt Q04199 (Q04199 449-468): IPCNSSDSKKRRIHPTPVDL

With Asf1 (from UniProt P32447), the dissociation constant (Kd) in assay [1] was 1500 nM. Consider “Chromatin Assembly Factor 1 (CAF-1) complex: Cac1, Cac2, Cac3 (from UniProt Q12495 1-606; Q04199 1-468; P13712 1-422)”, for which the equilibrium dissociation constant (Kd) is 280 nM in assay [2] and 380 nM in assay [3].

The values above are taken from paper PMC3526290.
